# Source: patent publication US20230365705A1 (DYNAMICURE BIOTECHNOLOGY, published 2023)
# T1: Human CD93 recombinant protein (Sino Biological Inc, Catalog #12589-H08H) (human, UniProt Q9NPY3 22-580)
# T1 construct: Biotinylated (EZ-LINK NHS-PEG4 biotin) in the BLI assays; also called hCD93; His-tagged human CD93
# T1 sequence (looked up): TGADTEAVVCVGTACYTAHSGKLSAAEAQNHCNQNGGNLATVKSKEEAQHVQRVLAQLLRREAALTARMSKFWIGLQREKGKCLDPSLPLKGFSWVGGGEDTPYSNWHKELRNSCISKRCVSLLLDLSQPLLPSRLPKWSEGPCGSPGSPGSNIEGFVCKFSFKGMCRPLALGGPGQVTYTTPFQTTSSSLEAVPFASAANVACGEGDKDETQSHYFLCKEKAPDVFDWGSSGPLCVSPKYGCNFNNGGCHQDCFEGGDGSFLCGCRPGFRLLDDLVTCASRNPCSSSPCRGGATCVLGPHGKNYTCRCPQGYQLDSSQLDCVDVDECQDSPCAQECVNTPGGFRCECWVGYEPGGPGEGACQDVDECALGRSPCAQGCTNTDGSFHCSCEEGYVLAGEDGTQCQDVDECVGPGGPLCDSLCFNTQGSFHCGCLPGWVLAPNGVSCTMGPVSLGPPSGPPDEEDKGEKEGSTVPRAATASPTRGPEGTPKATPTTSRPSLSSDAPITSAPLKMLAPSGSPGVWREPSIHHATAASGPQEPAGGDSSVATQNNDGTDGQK
# T2: Human CD93 on cells (human CD93 expressing CHO cells; HUVEC, U937 and KG1a cells) (human, UniProt Q9NPY3 22-652)
# T2 construct: whole, on cells; also called hCD93 expressing CHO cells; hCD93 CHO cells
# T2 sequence (looked up): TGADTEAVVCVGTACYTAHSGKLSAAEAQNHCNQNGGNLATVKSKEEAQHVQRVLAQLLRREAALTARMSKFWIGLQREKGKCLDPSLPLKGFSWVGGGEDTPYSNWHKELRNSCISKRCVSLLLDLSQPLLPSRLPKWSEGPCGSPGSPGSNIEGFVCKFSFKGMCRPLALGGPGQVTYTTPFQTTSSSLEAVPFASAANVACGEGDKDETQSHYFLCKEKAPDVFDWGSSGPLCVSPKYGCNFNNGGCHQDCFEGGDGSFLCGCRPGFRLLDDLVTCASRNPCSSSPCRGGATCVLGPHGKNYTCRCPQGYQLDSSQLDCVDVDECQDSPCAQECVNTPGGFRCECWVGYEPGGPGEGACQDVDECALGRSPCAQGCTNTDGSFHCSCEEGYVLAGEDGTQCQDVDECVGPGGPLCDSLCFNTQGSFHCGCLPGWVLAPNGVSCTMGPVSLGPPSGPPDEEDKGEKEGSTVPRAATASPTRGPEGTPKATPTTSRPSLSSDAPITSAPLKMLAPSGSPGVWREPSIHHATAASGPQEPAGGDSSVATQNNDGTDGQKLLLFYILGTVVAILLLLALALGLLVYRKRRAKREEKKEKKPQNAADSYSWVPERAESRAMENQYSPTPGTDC
# What was measured:
# [1] = target: T1, Human CD93 recombinant protein (Sino …); experiment: BLI (Octet QKe), biotinylated human CD93 on streptavidin biosensors
# Protocol: The binding affinity of anti-CD93 antibodies were determined with bio-layer interferometry using Octet QKe (Fortebio). Human CD93 recombinant protein (Sino Biological Inc, Catalog #12589-H08H) or cynomolgus CD93 protein (made in-house) were biotinylated using EZ-LINK NHS-PEG4 biotin (Thermo Fisher Scientific). Streptavidin biosensors (Fortebio) were used to load biotinylated CD93 protein (300 seconds in 5 μg/ml). The baseline was stabilized for 60 seconds in 1× kinetics buffer (Fortebio) before anti-CD93 antibodies at a serial dilution were allowed to associate for 300 seconds with captured protein. Then the sensors were dissociated in 1× kinetics buffer for 600 seconds.
# [2] = target: T2, Human CD93 on cells (human CD93 …); experiment: flow cytometry, CD93 expressing CHO cells, antibody 10 ug/ml, FITC-A
# Protocol: Human CD93 expressing CHO cells were detached by incubation with TrypLE reagents (Thermos Fisher), which preserves the integrity of CD93 on the cell surface. […] After washing with FACS buffer twice, the samples were acquired in NovoCyte Flow Cytometer and analyzed by NovoExpress software.
Binder,binding result [1],binding result [2]
"16G9 (antibody, V domains shown, Mouse hybridoma monoclonal antibody) VH: EVQLQQSGPELVKPGASVKMSCKASGYTFTDYYMNWVKQSHGKSLEWIGRVNPNNGGKTYNQKFKGKATLTVDKSLSTAYMQLNSLTSEDSAVYYCARWRLRPVDYGMDYWGQGTSVTVSS VL: DIVLTQSPASLAVSLGQRATISCRASQSVSTSSYSYMHWYQQKPGQPPKLLIKYASNLESGVPARFSGSGSGTDFTLNIHPVEEEDTATYYCQHSWEIPFTFGSGTKLEIK",binds,binds
"12H4 (antibody, V domains shown, Mouse hybridoma monoclonal antibody) VH: EVQLQQSGPELVKPGASVKVSCKASGYTFTDYYIHWVKQRPGQGLEWIGEIYPGSDDAYYNEKFKGKATLTADKSSSTAYMQLSSLTSEDSAVYFCTRETTATAYWGQGTLVTVSA VL: QIVLTQSPAIMSASPGEKVTITCSASSSVSLIYWFQQKPGTSPKLWIYSTSNLASGVPARFSGSGSGTSYSLTISRMEAEDAATYYCQQRSGYPPTFGGGTKLEIK",binds,binds
"5H9 (antibody, IgG2a, V domains shown, also called 5H9 mIgG2a) VH: QVQLQQSGPDLVKPGASVKISCKASGYAFSTYWMNWVKQRPGKGLEWIGRIFPGDGDANYNGKFKGKATLTADKSSSTAYMQLSSLTSEDSAVYFCTRTGAAYDFDPFPYWGQGTLVTVSA VL: DIVMTQAAFSNPVTLGTSASISCSSSKSLLHSNGVTYLYWYLQRPGQSPQLLIYRMSNLASGVPDRFSGSGSGTDFTLRISRVEAEDVGIYYCAQMLERPFTFGSGTKLEIK",binds,binds
"16B6 (antibody, V domains shown, Mouse hybridoma monoclonal antibody) VH: QVQLQQSGPELVKPGASVKISCKASGYAFSRSWMNWVKQRPGKGLEWIGWIYPGDGDTNYNGKFKGKATLTADKSSSTAYMQLSSLTSEDSAAYFCARSATLPYWYFDVWGAGTTVTVSS VL: DIKMTQSPSSMYASLGERVTITCKASQDIKSYLSWYQQKPWKSPKTLIYYATNLADGVPSRFSGSGSGQDYSLTISSLGSDDTATYYCLQHVESPWTFGGGTKLEIK",binds,binds
"19E12 (antibody, V domains shown, Mouse hybridoma monoclonal antibody) VH: QVQLQQSGAELVRPGASVKLSCKASGYTFTDYEMHWVRQTPVHGLEWIGGIDPETGGTAYNQKFKGKATLTADKSSSTAYMELRSLTSEDSAVYYCTRGAWFAYWGQGTLVTVSA VL: QAVVTQESALTTSPGETVTLTCRSSTGAVTTSNSANWVQEKPDHLFTGLIGGTNNRAPGVPARFSGSLIGDKAALTITGAQTEDEAIYFCALWYNNHFVFGGGTKLTVL",binds,binds

# More lines, now with the values ahead:
binding result [1],binding result [2],Binder
binds,binds,"17A7 (antibody, V domains shown, Mouse hybridoma monoclonal antibody) VH: QVQLQQSGPELVKPGASVKISCKGSGYAFSTYWMNWVKQRPGKGLEWIGRIFPGDGDTDYDGKFKGKATLTADKSSNTAYMQLSSLTSEDSAVYFCARTGAAYEFDPFPYWGQGTLVTVSA VL: DIVMTQAAFSNPVTLGTSASISCSSTKSLLHSSGITYLYWYLQRPGQSPQLLIYRMSNLASGVPDRFSGSGSGTDFTLRISRVEAEDVGVYYCAQMLERPFTFGSGTKLEIK"
binds,binds,"17E6 (antibody, V domains shown, Mouse hybridoma monoclonal antibody) VH: EVQLQQSGPELVKPGASVKMSCKASGYTFTSYVIHWVKQKPGQGLEWIGYINPYSDYTQYNEKFKGKATLTSDKSSSTAYMELSSLTSEDSAVYSCARRADGNPYAMDYWGQGTSVTVSS VL: DIVMTQSHKFMSTSVGDRVSTTCKASQDVSTAVVWYQQKPGQSPKLLIYSASYRYTGVPDRFTGSGSGTDFTFTITSVQAEDLAVYYCQQHYSTPFTFGSGTKLEIK"
binds,binds,"19B5 (antibody, V domains shown, Mouse hybridoma monoclonal antibody) VH: DVNLVESGGGLVKLGGSLKLSCAASGFTFSNYYMSWVRQSPEKRLEWVATISNNGDSTYYLDTVKGRFTISRDSAENTLYLQMSSLISEDTAVYYCTRVGTGFTYWGQGTLVTVSA VL: DIVLTQSPATLSVTPGDSVSLSCRASQSINNYLHWYQQRSHESPRLLIKFASQSISDIPSRFSGSGSGTDFTLSINSIETEDFGMYFCQQSNSWPLTFGAGTKLELK"
